Source: WO2010064089A1 (dated 2010)
Where a chain is given by its changes, count along the chain named. Blank lines part the entries; values can stand above or below the binder they belong to.

Molecular target: human c-Met receptor on tumor cells (A549, NCI-H441, BxPC3) (human, UniProt P08581 25-1390)
Test: cell-based or functional assay

- inhibition of HGF-induced proliferation of NCI-H441 cells (Figure 14A): 19%
- inhibition of HGF-induced proliferation of NCI-H441 cells (Figure 15): 33%
B4: [224G11]chim (antibody, human IgG1, V domains shown)
VH: EVQLQQSGPELVKPGASVKISCKTSGYIFTAYTMHWVRQSLGESLDWIGGIKPNNGLANYNQKFKGKATLTVDKSSSTAYMDLRSLTSEDSAVYYCARSEITTEFDYWGQGTALTVSS
VL: DIVLTQSPASLAVSLGQRATISCRASESVDSYANSFMHWYQQKPGQPPKLLIYRASNLESGIPARFSGSGSRTDFTLTINPVEADDVATYYCQQSKEDPLTFGSGTKLEMKR

- inhibition of HGF-induced proliferation of NCI-H441 cells (Figure 14B): 84%
B5: [224G11][MMCH chim] (antibody, human IgG1, V domains shown)
VH: B4 VH
VL: B4 VL

- inhibition of HGF-induced proliferation of NCI-H441 cells (Figure 14B): 93%
- inhibition of HGF-induced proliferation of NCI-H441 cells (Figure 15): 81%
B6: [224G11][TH7 chim] (antibody)
heavy: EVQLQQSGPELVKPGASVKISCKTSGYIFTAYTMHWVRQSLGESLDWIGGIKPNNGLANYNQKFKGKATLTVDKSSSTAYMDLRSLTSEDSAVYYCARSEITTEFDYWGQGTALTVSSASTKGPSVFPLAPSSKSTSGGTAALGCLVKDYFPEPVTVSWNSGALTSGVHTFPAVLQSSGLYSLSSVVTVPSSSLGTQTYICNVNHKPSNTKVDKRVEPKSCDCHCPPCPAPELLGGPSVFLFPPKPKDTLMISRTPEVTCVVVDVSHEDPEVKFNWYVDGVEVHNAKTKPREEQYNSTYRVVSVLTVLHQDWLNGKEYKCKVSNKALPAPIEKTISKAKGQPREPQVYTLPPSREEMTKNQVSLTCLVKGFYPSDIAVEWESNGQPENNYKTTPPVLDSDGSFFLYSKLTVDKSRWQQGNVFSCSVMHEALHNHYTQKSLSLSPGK
light: DIVLTQSPASLAVSLGQRATISCRASESVDSYANSFMHWYQQKPGQPPKLLIYRASNLESGIPARFSGSGSRTDFTLTINPVEADDVATYYCQQSKEDPLTFGSGTKLEMKRTVAAPSVFIFPPSDEQLKSGTASVVCLLNNFYPREAKVQWKVDNALQSGNSQESVTEQDSKDSTYSLSSTLTLSKADYEKHKVYACEVTHQGLSSPVTKSFNRGEC

- inhibition of HGF-induced proliferation of NCI-H441 cells (Figure 14A): ~46%
B7: [224G11][Hz1] (antibody, V domains shown)
VH: QVQLVQSGAEVKKPGASVKVSCKASGYIFTAYTMHWVRQAPGQGLEWMGWIKPNNGLANYAQKFQGRVTMTRDTSISTAYMELSRLRSDDTAVYYCARSEITTEFDYWGQGTLVTVSS
VL: DIVLTQSPDSLAVSLGERATINCKSSESVDSYANSFMHWYQQKPGQPPKLLIYRASTRESGVPDRFSGSGSRTDFTLTISSLQAEDVAVYYCQQSKEDPLTFGGGTKVEIKR

- inhibition of HGF-induced proliferation of NCI-H441 cells (Figure 14A): ~30%
B9: [224G11][Hz2] (antibody, V domains shown)
VH: B7 VH
VL: B7 VL with L4M, R72G

Second part, the binder before the results:

B1: murine 224G11 Mab (antibody, mouse IgG1, V domains shown)
VH: B4 VH
VL: B4 VL
- inhibition of HGF-induced proliferation of NCI-H441 cells (Figure 14A): 66%
- inhibition of HGF-induced proliferation of NCI-H441 cells (Figure 14B): 57%
- inhibition of HGF-induced proliferation of NCI-H441 cells (Figure 15): 74%

B2: [224G11][MH chim] (antibody, human IgG1, V domains shown)
VH: B4 VH
VL: B4 VL
- inhibition of HGF-induced proliferation of NCI-H441 cells (Figure 14B): 79%

B3: [224G11][MUP9H chim] (antibody, human IgG1, V domains shown)
VH: B4 VH
VL: B4 VL
- inhibition of HGF-induced proliferation of NCI-H441 cells (Figure 14B): 78%

B8: [224G11][TH7 Hz3] (antibody, V domains shown)
VH: B7 VH
VL: B7 VL with L4M, M37L, R72G
- inhibition of HGF-induced proliferation of NCI-H441 cells (Figure 15): 76%

B10: [224G11][Hz3] (antibody, V domains shown)
VH: B7 VH
VL: B7 VL with L4M, M37L, R72G
- inhibition of HGF-induced proliferation of NCI-H441 cells (Figure 14A): ~35%

B11: [224G11][TH7 Hz1] (antibody, V domains shown)
VH: B7 VH
VL: B7 VL
- inhibition of HGF-induced proliferation of NCI-H441 cells (Figure 15): 67%
